T1: potato lectin (Solanum tuberosum, UniProt Q9S8M0)
T1 construct: purchased Sigma
T1 sequence (Q9S8M0 whole entry, looked up): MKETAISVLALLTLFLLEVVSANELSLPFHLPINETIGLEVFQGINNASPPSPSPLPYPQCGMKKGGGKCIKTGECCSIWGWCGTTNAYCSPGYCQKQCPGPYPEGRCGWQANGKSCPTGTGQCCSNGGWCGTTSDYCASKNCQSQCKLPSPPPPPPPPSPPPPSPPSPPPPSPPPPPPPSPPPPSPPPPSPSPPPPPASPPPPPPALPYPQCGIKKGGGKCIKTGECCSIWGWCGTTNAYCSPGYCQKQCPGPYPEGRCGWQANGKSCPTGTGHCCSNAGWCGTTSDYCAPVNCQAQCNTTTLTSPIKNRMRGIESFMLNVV

B1: VHH 3E6: VHH binding gum arabic, potato lectin and leaf surface; SEQ ID NO:7 by order of the list (protein, listed as Lama glama)
VHH: QVQLQESGGGLVQPGGTLSLSCAASGFNVRWYGMGWFRQAPGKEREGVACISALQETTAYADSVKGRFTLSRDNPKNTLSLQMNNLQPEDTGVYYCATTDCDDSSRMTYTSYLGQGTQVTVSS
modifications: 3E6
B2: Microcapsules containing uvitex OB VHH 3E6: polyurea microcapsules containing the fluorescent tracer Uvitex OB, coupled with (monovalent) VHH 3E6 (conjugate)
VHH: B1 VHH
modifications: left off: small tags and cut ends
notes: polyurea microcapsules containing the fluorescent tracer Uvitex OB, coupled with (monovalent) VHH 3E6

Columns and labels:
[1] = biological target: T1, potato lectin; test: ELISA-like assay of VHH-coupled microcapsules, potato lectin-coated wells; format: binding; design: Area of bound microcapsules: unit not given beside the values; conditions: for Area of bound microcapsules: uvitex OB microcapsules
Procedure: Polyurea microcapsules were produced by interfacial polymerization. With the objective to generate functionalized polyurea microcapsules, VHH were coupled to microcapsules containing either the insecticide lambda cyhalothrin or the fluorescent tracer molecule Uvitex OB and a shell with incorporated lysine to surface-expose carboxylic acid residues. Lambda cyhalothrin was dissolved in benzyl benzoate in concentrations between 30% and 66% before encapsulation. Alternatively, a core of 1.5% Uvitex in benzyl benzoate was used for easy fluorescent visualization of microcapsules. Toluene diisocyanate (TDI) and polymethylenepolyphenylene isocyanate (PMPPI) were dissolved in the oil phase in different ratios and concentrations in the oil phase to produce desired shell characteristics. Stirring speed for the emulsion was varied to control droplet size and consequently microcapsule diameter. Microcapsules with approximate diameters of 5 μm, 10 μm, or 50 μm were successfully produced. Bifunctional lysine and trifunctional diethylene triamine (DETA) were used in different ratios and/or added sequentially during encapsulation to on the one hand maximize amounts of carboxylic acids on the microcapsules' surface and on the other hand obtain sufficient strength of capsule shells. Microcapsules were washed with water after production and stored as microcapsule suspensions in water. The microcapsules were washed with 100 mM MES, 500 mM NaCl, pH 6.0 immediately before coupling of VHH using a vacuum-tight filter flask and P 1.6 filter funnel (Duran). Alternatively, glass filter holders with 0.45 μm disposable membrane filters (Millipore) or 0.45 μm 96-well deep-well filtration plates (Millipore) were used. Couplings of VHH to microcapsules were performed using carbodiimide-mediated couplings using a one-step procedure, a two-step procedure without N-hydroxysuccinimide (NHS), or a two-step procedure with NHS. The major difference between one-step coupling and two-step coupling procedures is the occurrence of cross-linking of VHH in one-step coupling procedures. The protocols for the three procedures are largely similar and differ as follows. For one-step couplings VHH were added to washed microcapsules and 1-Ethyl-3-[3-dimethylaminopropyl]carbodiimide Hydrochloride (EDC) (Pierce) was added and coupling reaction was allowed for 2 hours at room temperature. For two-step couplings washed microcapsules were first activated with EDC in the presence or absence of NHS. Excess unreacted EDC (and NHS) were removed by quick sequential washes with ice-cold buffers and VHH were added and allowed to react with activated carboxylic acids on microcapsule shells. For ø 10 μm microcapsules 2-20 μg VHH were coupled per mg microcapsules. For microcapsules with other diameters amounts were scaled accordingly. After coupling of VHH the microcapsules were washed with PBS and stored in PBS. Success of coupling of VHH was investigated using a combination of analyzing coupling efficiency by SDS-PAGE and analyzing bound hexahistidine-tagged VHH by microscopy or a SP5 confocal microscope system (Leica) using anti-histidine antibodies directly conjugated with Alexa-488 fluorescent dye. […] VHH-coupled microcapsules were labeled with anti-histidine antibodies for 1 hour at room temperature. Unbound anti-histidine antibodies were removed by washing five times with PBS using 0.45 μm 96-well deep-well filtration plates (Millipore). […]

[2] = system: potato leaf discs; test: Leaf disc binding assay with VHH-coupled microcapsules, potato; design: species or system potato (variety Desiree)
Procedure: A leaf disc binding assay was used to evaluate the interaction of VHH-coupled microcapsules with potato, grass and azalea leaves. ø 8 mm leaf discs were sampled from the leaves of potato pot plants (variety Desiree), from the leaves of greenhouse-grown Lollium perenne and from the leaves of azalea pot plants. Leaf discs were washed three times with PBS. Microcapsules containing lambda cyhalothrin or Uvitex were diluted to appropriate densities in 1% skimmed milk in PBS with 0.05%-TWEEN®-20. Microcapsules were added to the leaf discs and settling of microcapsules and binding of targeting agents allowed for 1 hour. Unbound microcapsules were removed by washing three to five times with PBS with 0.05%-TWEEN®-20.
For lambda cyhalothrin microcapsules, a residue analysis was performed to measure lambda cyhalothrin amounts on potato leaf discs. Washed leaf discs with bound microcapsules were transferred to glass vials and microcapsules were dissolved in acetone. Samples were diluted by addition of hexane containing 0.05% triphenylphosphate as internal standard. The amount of lambda cyhalothrin was determined by GC/MS-MS analysis in comparison with calibration solutions. Controls for lambda cyhalothrin microcapsules included blank microcapsules to which no VHH were coupled and microcapsules to which unrelated VHH were coupled.
Leaf discs with Uvitex microcapsules were analyzed for bound microcapsules on a macrozoom microscope system (Nikon). Microcapsules were counted using Volocity image analysis software (Perkin Elmer). A DAPI filter was used to visualize Uvitex microcapsules. Controls for Uvitex microcapsules included blank microcapsules to which no VHH were coupled and microcapsules to which unrelated VHH were coupled.

[3] = potato leaf discs, Uvitex microcapsules, FIG. 4

Molecule	binding and retaining microcapsules to antigen-coated surface when VHH is coupled to a microcapsule ([1]; microcapsule binding assays, resists washing shear forces)	binding and retaining microcapsules to leaf surfaces ([2]; VHH coupled to Uvitex microcapsules, leaf disc binding assay)	Area of bound microcapsules ([1]; no coating (first series, with potato lectin rows), surface coverage 100%)	Area of bound microcapsules ([1]; potato lectin, surface coverage 4%)	Area of bound microcapsules ([1]; potato lectin, surface coverage 20%)	Area of bound microcapsules ([1]; potato lectin, surface coverage 100%)	more microcapsules bound to leaf surfaces compared to blank microcapsules [2, 3]	more microcapsules bound to leaf surfaces compared to microcapsules coupled with unrelated VHH [2, 3]
B1	capable of binding specifically to antigen-coated surfaces	capable of binding and retaining microcapsules specifically to leaf surfaces						
B2			86.574	144.955	510.242	504.839	nine-fold	six-fold
